The target of assay [1] is T1, MICB expressed on transfected B16F10 melanoma cells (human, UniProt Q29980 23-383).
T1 construct: whole, on cells; also called MICB-transfected cells
T1 sequence (looked up): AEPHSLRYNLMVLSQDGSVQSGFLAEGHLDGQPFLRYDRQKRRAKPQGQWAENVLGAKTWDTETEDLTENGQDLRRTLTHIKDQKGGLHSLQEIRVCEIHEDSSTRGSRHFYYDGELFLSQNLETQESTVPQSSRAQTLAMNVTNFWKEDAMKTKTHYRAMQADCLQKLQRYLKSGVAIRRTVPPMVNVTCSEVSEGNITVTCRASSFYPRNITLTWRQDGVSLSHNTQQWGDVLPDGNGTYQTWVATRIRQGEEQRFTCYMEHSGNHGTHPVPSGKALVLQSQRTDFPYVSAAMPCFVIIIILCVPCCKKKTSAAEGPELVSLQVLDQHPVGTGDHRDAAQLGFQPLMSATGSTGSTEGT
Kind of assay: flow cytometry of transfected B16F10 cells, biotinylated nanobody with streptavidin-PE.

Assay [2] addresses T2, P. falciparum MSP-1 subunit p42 (plate-bound, isolated) (Plasmodium falciparum, UniProt Q8I0U8 1327-1699).
T2 construct: domain: p42
T2 sequence: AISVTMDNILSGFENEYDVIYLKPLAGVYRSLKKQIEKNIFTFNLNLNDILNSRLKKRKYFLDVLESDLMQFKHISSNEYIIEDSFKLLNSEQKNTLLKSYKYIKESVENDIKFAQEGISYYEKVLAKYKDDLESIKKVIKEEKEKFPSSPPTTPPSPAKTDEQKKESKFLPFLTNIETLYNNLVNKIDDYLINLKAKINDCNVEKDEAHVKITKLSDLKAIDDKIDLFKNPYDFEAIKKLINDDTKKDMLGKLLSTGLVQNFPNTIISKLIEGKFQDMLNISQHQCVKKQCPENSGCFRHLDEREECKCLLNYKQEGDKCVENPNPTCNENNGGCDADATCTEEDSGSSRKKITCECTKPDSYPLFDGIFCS
Kind of assay: Western blot against PfMSP-1 subunits. (In general: In western blotting, separated proteins are transferred to a membrane and probed.)

For assay [3], the target named is T3, P. falciparum MSP-1 subunit p38 (plate-bound, isolated) (Plasmodium falciparum, UniProt Q8I0U8 911-1326).
T3 construct: domain: p38
T3 sequence: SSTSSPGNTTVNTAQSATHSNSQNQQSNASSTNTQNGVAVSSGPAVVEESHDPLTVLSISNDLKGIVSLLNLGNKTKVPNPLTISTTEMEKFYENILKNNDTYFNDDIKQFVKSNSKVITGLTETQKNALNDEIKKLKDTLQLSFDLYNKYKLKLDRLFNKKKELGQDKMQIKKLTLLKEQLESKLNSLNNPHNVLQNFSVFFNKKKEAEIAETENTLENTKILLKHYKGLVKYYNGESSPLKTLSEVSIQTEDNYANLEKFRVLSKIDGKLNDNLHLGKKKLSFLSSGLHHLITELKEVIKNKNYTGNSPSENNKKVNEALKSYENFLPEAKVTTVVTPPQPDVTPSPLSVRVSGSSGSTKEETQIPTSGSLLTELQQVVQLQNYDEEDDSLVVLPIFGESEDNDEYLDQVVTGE
As to the kind of experiment: Western blot against PfMSP-1 subunits.

The target in assay [4] is T4, P. falciparum MSP-1 subunit p83 (plate-bound, isolated) (Plasmodium falciparum, UniProt Q8I0U8 20-722).
T4 construct: domain: p83
T4 sequence: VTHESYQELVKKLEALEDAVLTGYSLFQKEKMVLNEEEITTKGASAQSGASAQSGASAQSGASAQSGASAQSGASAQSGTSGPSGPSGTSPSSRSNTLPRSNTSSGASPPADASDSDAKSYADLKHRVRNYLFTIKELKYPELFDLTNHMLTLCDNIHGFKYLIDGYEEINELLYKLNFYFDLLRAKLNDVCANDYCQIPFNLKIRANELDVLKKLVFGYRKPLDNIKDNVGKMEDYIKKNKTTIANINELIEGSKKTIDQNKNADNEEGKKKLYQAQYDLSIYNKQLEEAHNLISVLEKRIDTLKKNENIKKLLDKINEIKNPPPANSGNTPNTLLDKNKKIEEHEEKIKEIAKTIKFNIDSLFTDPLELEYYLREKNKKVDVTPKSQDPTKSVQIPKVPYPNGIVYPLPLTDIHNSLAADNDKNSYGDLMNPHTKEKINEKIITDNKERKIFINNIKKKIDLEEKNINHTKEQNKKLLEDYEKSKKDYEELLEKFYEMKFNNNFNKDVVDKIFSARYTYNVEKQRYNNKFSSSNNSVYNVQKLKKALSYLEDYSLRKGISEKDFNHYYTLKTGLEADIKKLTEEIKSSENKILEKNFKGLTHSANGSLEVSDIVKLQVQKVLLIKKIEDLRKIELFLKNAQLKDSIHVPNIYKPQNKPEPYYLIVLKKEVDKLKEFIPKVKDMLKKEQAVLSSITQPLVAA
As to the kind of experiment: Western blot against PfMSP-1 subunits.

B1: anti-MICA VHH nanobody clone H3 (VHH)
VHH: QVQLVETGGGLVQAGGSLRLSCAASGRTFSSYAMGWFRQAPGKEREFVAGISWSGGSTYYGDSVKGRFTISRDNAKNTVYLLMNSLKPEDTAVYYCAADLVRSYGSSWPSLFQFRNPEDVQDGMDYWGKGTLVTVSS
For the molecule B1, the binding result in assay [1] is reported as “no binding”.

B2: anti-p83 B4 VHH (P. falciparum MSP-1 specific) (VHH)
VHH: QLQLVESGGGLAQAGGSLRLSCAASGRTSSTKPMGWFRQAPGLEREFVASISWLGGSTLYSDSVKGRFTISRDNAKNTVYLQMNSLKSEDTAVYYCAGGTSAYSGRDSSRYEYWGQGTQVTVSS
notes: also called anti-p84 B4
As to B2, the binding result in assay [2] and in assay [3] was “no binding” in each case.

B3: anti-p42 G11 VHH (P. falciparum MSP-1 specific) (VHH)
VHH: QVQLVETGGGLVQAGGSLRLSCVVSGRSLILYGMGWFRQAPGKEREFVAGIVWNGGWTYYADSVKGRFTISRDTAKNTVYLQMNSLKPEDTAVYSCAAGPGDGRRRVAPAEYNYWGQGTQVTVSS
For the molecule B3, the binding result in assay [3] and in assay [4] was “no binding” throughout.

B4: anti-p42 A6 VHH (P. falciparum MSP-1 specific) (VHH)
VHH: QVQLVESGGGLVQAGGSLRLSCAASARTFSYYGAAWFRQAPGKEREFVAAVSWNGDDTYYADSVKGRFTISRDNTKNTVSLQMNALKPEDTAVYYCEAAAYGRDWRQSANYVYWGQGTQVTVSS
Take B4: the binding result in assay [3] and in assay [4] was “no binding” throughout.

B5: anti-MICA VHH nanobody clone A1 (VHH)
VHH: QVQLVESGGGLVQPGGSLRLSCAASGFTLDYYDIGWFRQAPGKEREGVSCITSSDGSTYYADSVKGRFTISRDNAKNTVYLQMNSLKPEDTAVYYCAADCTKPQWKSKTEAWGQGTQVTVSS
For B5, in assay [1], the binding result is “no binding”.

Values taken from US20250144228A1 (CHILDREN S MEDICAL CENTER, published 2025).
